The target of the assay is SIINFEKL:K^b complex (SIINFEKL complexed to H-2K^b) on LK^b cells (murine) (UniProt P01901). Put plainly: cell-based or functional assay.
Sequence of UniProt P01901 (P01901 22-369, one chain of several): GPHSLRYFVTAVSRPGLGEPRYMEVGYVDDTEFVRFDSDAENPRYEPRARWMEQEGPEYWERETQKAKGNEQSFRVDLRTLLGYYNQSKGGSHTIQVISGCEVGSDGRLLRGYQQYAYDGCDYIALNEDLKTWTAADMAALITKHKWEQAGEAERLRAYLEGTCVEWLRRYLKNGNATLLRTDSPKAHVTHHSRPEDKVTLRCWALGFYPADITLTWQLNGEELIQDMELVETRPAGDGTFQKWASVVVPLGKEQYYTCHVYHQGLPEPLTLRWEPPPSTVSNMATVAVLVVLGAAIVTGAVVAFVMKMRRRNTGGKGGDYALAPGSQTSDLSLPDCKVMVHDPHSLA

As for “T cell receptor of the SIINFEKL:Kb-specific T hybridoma B3Z (TCR)”, the β-galactosidase measured with a luminescent substrate after overnight co-incubation of SIINFEKL-pulsed LK^b cells with B3Z; limit of detection given as the peptide pulse concentration was 5 ng/mL.

(Values after patent publication US20140341938A1.)
